Assay results from publication PMC2783259.
Where two headings read alike, the source gives them in different places.

Key:
[1] = target: human FcγRIA (CD64) co-expressed with the common γ chain on CV-1 cells (human) (UniProt P12314); assay: inhibition of rosette formation
[2] = target: human FcγRIIA (CD32), R131 allotype, on CV-1 cells (human); assay: inhibition of rosette formation
[3] = target: human FcγRIIA (CD32), H131 allotype, on CV-1 cells (human) (UniProt P12318); assay: inhibition of rosette formation
[4] = target: human FcγRIA (CD64) co-expressed with the common γ chain on CV-1 cells (human) (UniProt P12314); assay: inhibition of rosette formation; remark: listed apart in the source
[5] = target: human FcγRIIA (CD32), H131 allotype, on CV-1 cells (human) (UniProt P12318); assay: inhibition of rosette formation; remark: listed apart in the source
[6] = target: The FcγRIA and FcγRIIA transfectants; assay: rosette formation

Row | Substance | percent inhibition of rosette formation [1] [%] | percent inhibition of rosette formation [2] [%] | also measured
1 | human IgG1 myeloma protein, heat-aggregated (antibody) | > 90 | > 90 | 
2 | human IgG2 myeloma protein, heat-aggregated (antibody) |  |  | percent inhibition of rosette formation [3]: 65%; percent inhibition of rosette formation [4]: 20%; percent inhibition of rosette formation [5]: 60%
3 | human IgG3 myeloma protein, heat-aggregated (antibody) | > 90 | > 90 | 
4 | rabbit IgG on opsonized sheep red blood cells (SRBC) (antibody) |  |  | percent rosette formation [6]: 82 to 97%
